This is an account of results in patent US20220363718A1.

*1 amine or outer side, *2 acyl side, *3 side chain or, on linkers, in order; H or OH if unused. Bridges are numbered along the chain shown (N, C = ends). [ ]: non-standard residue; d: D form. TATA = O=C(CC[*:1])N1CN(C(=O)CC[*:2])CN(C(=O)CC[*:3])C1; Trp(1-Me) = Cn1cc(C[C@H](N)C(=O)O)c2ccccc21; Arg(Me2a) = CN(C)C(=N)NCCC[C@H](N)C(=O)O; Phe(4-F) = N[C@@H](Cc1ccc(F)cc1)C(=O)O; tBuAla = CC(C)(C)C[C@H](N)C(=O)O; NMeD = CN[C@@H](CC(=O)O)C(=O)O; NMeA = CN[C@@H](C)C(=O)O

In the experiment the target is Biotinylated human TSLP (human). Briefly: SPR, biotinylated hTSLP on streptavidin chip.
Biotinylated human TSLP (human), sequence (chain, as listed by the source limits assumed): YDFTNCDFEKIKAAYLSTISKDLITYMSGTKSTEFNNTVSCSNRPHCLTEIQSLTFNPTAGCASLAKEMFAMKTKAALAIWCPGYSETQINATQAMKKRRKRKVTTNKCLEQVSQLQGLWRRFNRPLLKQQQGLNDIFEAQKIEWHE

Molecule Ac-C[NMeA][Trp(1-Me)][tBuAla]Q[NMeD]C[Trp(1-Me)][Arg(Me2a)]G[Phe(4-F)]C-NH2 (linker 1-7-12 via TATA) [Example 5] had an equilibrium dissociation constant (Kd) of 2.7 nM.

B1: Example 13 (peptide)
peptide: CQXLEDCXXGXC
modifications: not fully specified; N-term acetyl; CQ[TrpMe]LEDC[TrpMe][ADMA]G[4-FPhe]C as printed; 3 Cys on TATA
In turn, B1 showed an equilibrium dissociation constant (Kd) of 6 nM.
